# From patent US20250043302A1, “MUTATED HYDROXYPHENYLPYRUVATE DIOXYGENASE POLYPEPTIDE, AND CODING GENE AND USE THEREOF” (BEIJING DABEINONG BIOTECHNOLOGY CO., LTD., priority 2021, published 2025)
# How the values were obtained:
# Type in all cases: in vivo
# [1] = test system: Arabidopsis thaliana T1 plants; experiment: Mesotrione tolerance of transgenic Arabidopsis thaliana T1 plants (spray, bleached leaf area grade, damage score); set-up: Scores: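 damage score 0-100 computed as Σ(N×S)/(T×M)×100 over grades 0-3 with higher meaning more damage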; conditions: Arabidopsis thaliana T1 plants; for Grade 0 (classification and statistics of the grade of pesticide damage; number of plants) / Grade 1 (classification and statistics of the grade of pesticide damage; number of plants) / Grade 2 (classification and statistics of the grade of pesticide damage; number of plants) / Grade 3 (classification and statistics of the grade of pesticide damage; number of plants): 16 plants
# In short: (§1)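 Damage was assessed by bleaching grade (0 none; 1 <50%; 2 >50%; 3 100% of leaf area) one week after spraying. Sprays on 18-day-old T1 and wild-type plants used field-rate multiples: topramezone 25–200, isoxaflutole 35–280, mesotrione 52.5–420 g ai/ha.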
# [2] = test system: Arabidopsis thaliana T1 plants; experiment: Topramezone tolerance of transgenic Arabidopsis thaliana T1 plants (spray, bleached leaf area grade, damage score); conditions: 7 DAT, Table 4; for Classification and statistics of the grade of pesticide damage: Grade 0 / Classification and statistics of the grade of pesticide damage: Grade 1 / Classification and statistics of the grade of pesticide damage: Grade 2 / Classification and statistics of the grade of pesticide damage: Grade 3: number of plants; for Scores: pesticide damage score 0-100
# In short: as §1
# [3] = test system: Arabidopsis thaliana T1 plants; experiment: Isoxaflutole tolerance of transgenic Arabidopsis thaliana T1 plants (spray, bleached leaf area grade, damage score); set-up: Scores (pesticide damage): scale not given here; conditions: spray, Arabidopsis thaliana T1 plants; for Classification and statistics of the grade of pesticide damage: Grade 0 (number of plants) / Classification and statistics of the grade of pesticide damage: Grade 1 (number of plants) / Classification and statistics of the grade of pesticide damage: Grade 2 (number of plants) / Classification and statistics of the grade of pesticide damage: Grade 3 (number of plants): 16 plants
# In short: as §1
# [4] = isoxaflutole 35 g ai/ha (0.5x field concentration)
# [5] = isoxaflutole 70 g ai/ha (1x field concentration)
molecule,measurement,setting,value
"SbHPPD-02: nucleotide sequence encoding wild-type Sorghum bicolor HPPD; vector DBN11758 (nucleic acid, SbHPPD-02 Nucleotide Sequence, vector DBN11758) DNA: ATGCCGCCCACTCCAACAACTGCTGCTGCGACGGGAGCAGCTGTCGCCGCTGCTTCTGCTGAGCAGGCTGCCTTCAGGCTCGTCGGGCACAGAAATTTTGTTCGTGTAAATCCAAGGAGTGATAGGTTCCACACCTTGGCTTTTCACCACGTGGAGTTGTGGTGTGCTGATGCAGCCTCGGCAGCGGGGCGCTTCTCGTTTGGTCTCGGTGCTCCGCTCGCCGCAAGATCTGATCTTAGCACTGGAAACACAGCGCATGCCTCCCTGCTCCTGCGCTCTGGCGCGCTGGCGTTCCTCTTCACGGCGCCATATGCTCACGGCGCCGACGCCGCCACCGCGTCATTGCCGTCTTTTAGTGCAGCCGAAGCAAGAAGATTTGCAGCAGACCACGGCCTCGCCGTAAGGGCCGTGGCCTTACGTGTCGCCGATGCCGAAGATGCTTTCCGCGCCTCTGTAGCAGCTGGAGCAAGGCCAGCATTTGAACCTGTTGAATTGGGGTTAGGATTCCGTCTTGCAGAAGTTGAGCTTTATGGCGACGTTGTTTTGAGATACGTTTCATATCCTGATGACGCTGACGCTAGCTTCTTGCCTGGTTTTGTGGGGGTGACATCACCTGGGGCAGCAGATTATGGTCTCAGGCGGTTTGATCATATTGTTGGAAACGTTCCTGAACTCGCGCCGGCGGCAGCCTACTTCGCCGGTTTCACTGGGTTTCATGAATTTGCTGAATTCACAGCCGAGGATGTCGGCACCACCGAGAGTGGACTGAACTCCATGGTGCTGGCCAACAATGCAGAGAATGTCCTTCTTCCCTTGAATGAACCAGTTCATGGAACAAAAAGGCGTTCCCAAATACAAACATACCTCGACCATCATGGTGGACCAGGCGTTCAGCATATGGCTCTCGCTAGTGACGATGTTCTACGAACCCTGCGAGAGATGCAGGCGCGGTCTGCAATGGGAGGATTTGAGTTCATGGCACCTCCTGCCCCTGAATATTATGATGGTGTTCGGAGAAGGGCAGGTGATGTGCTAACTGAAGCTCAAATCAAGGAGTGCCAGGAGCTTGGCGTGCTGGTCGATCGGGATGATCAAGGTGTGCTTCTGCAGATTTTTACTAAACCAGTGGGTGACCGCCCCACGCTGTTCCTAGAGATCATCCAGAGAATAGGGTGCATGGAGAAGGACGAAAAAGGACAAGAGTACCAGAAGGGAGGTTGTGGCGGCTTTGGAAAAGGGAACTTCTCCCAATTATTCAAGTCAATTGAAGACTATGAAAAGAGTTTGGAGGCTAAGCAAGCTGCAGCCGCCCAGGGCAGCTGA",Resistance evaluation,[1]; mesotrione 52.5 g ai/ha,Non-resistant
same,Scores,[1]; mesotrione 52.5 g ai/ha,100
same,Grade 0 (classification and statistics of the grade of pesticide damage; number of plants),[1]; mesotrione 52.5 g ai/ha,0
same,Grade 1 (classification and statistics of the grade of pesticide damage; number of plants),[1]; mesotrione 52.5 g ai/ha,0
same,Grade 2 (classification and statistics of the grade of pesticide damage; number of plants),[1]; mesotrione 52.5 g ai/ha,0
same,Grade 3 (classification and statistics of the grade of pesticide damage; number of plants),[1]; mesotrione 52.5 g ai/ha,16
same,Resistance evaluation,[1]; mesotrione 105 g ai/ha,Non-resistant
same,Scores,[1]; mesotrione 105 g ai/ha,100
same,Grade 0 (classification and statistics of the grade of pesticide damage; number of plants),[1]; mesotrione 105 g ai/ha,0
same,Grade 1 (classification and statistics of the grade of pesticide damage; number of plants),[1]; mesotrione 105 g ai/ha,0
same,Grade 2 (classification and statistics of the grade of pesticide damage; number of plants),[1]; mesotrione 105 g ai/ha,0
same,Grade 3 (classification and statistics of the grade of pesticide damage; number of plants),[1]; mesotrione 105 g ai/ha,16
same,Classification and statistics of the grade of pesticide damage: Grade 0,[2]; topramezone 25 g ai/ha (1×),0
same,Classification and statistics of the grade of pesticide damage: Grade 1,[2]; topramezone 25 g ai/ha (1×),0
same,Classification and statistics of the grade of pesticide damage: Grade 2,[2]; topramezone 25 g ai/ha (1×),0
same,Classification and statistics of the grade of pesticide damage: Grade 3,[2]; topramezone 25 g ai/ha (1×),16
same,Classification and statistics of the grade of pesticide damage: Grade 0,[2]; topramezone 100 g ai/ha (4×),0
same,Classification and statistics of the grade of pesticide damage: Grade 1,[2]; topramezone 100 g ai/ha (4×),0
same,Classification and statistics of the grade of pesticide damage: Grade 2,[2]; topramezone 100 g ai/ha (4×),0
same,Classification and statistics of the grade of pesticide damage: Grade 3,[2]; topramezone 100 g ai/ha (4×),16
same,Scores,[2]; topramezone 25 g ai/ha (1×),100
same,Scores,[2]; topramezone 100 g ai/ha (4×),100
same,Resistance evaluation,[2]; topramezone 25 g ai/ha (1×),non-resistant (non-resistant plants (scores 68-100))
same,Resistance evaluation,[2]; topramezone 100 g ai/ha (4×),non-resistant (non-resistant plants (scores 68-100))
same,Resistance evaluation,[3]; [4],Non-resistant
same,Scores (pesticide damage),[3]; [4],100
same,Classification and statistics of the grade of pesticide damage: Grade 0 (number of plants),[3]; [4],0
same,Classification and statistics of the grade of pesticide damage: Grade 1 (number of plants),[3]; [4],0
same,Classification and statistics of the grade of pesticide damage: Grade 2 (number of plants),[3]; [4],0
same,Classification and statistics of the grade of pesticide damage: Grade 3 (number of plants),[3]; [4],16
same,Resistance evaluation,[3]; [5],Non-resistant
same,Scores (pesticide damage),[3]; [5],100
same,Classification and statistics of the grade of pesticide damage: Grade 0 (number of plants),[3]; [5],0
same,Classification and statistics of the grade of pesticide damage: Grade 1 (number of plants),[3]; [5],0
same,Classification and statistics of the grade of pesticide damage: Grade 2 (number of plants),[3]; [5],0
same,Classification and statistics of the grade of pesticide damage: Grade 3 (number of plants),[3]; [5],16
